According to patent US20250109212A1:
Read-outs that look alike come from different tables or passages of the source.

What was measured:
[1] = target: full length human CD47 (NCBI #NP_942088.1) on 293F-CD47 cells (human) (UniProt Q08722); experiment: FACS on 293F-CD47 cells, detection with goat anti-human IgG (Fc)-PE, MFI
[2] = target: full length human CD47 (NCBI #NP_942088.1) on 293F-CD47 cells (human) (UniProt Q08722); experiment: cell-based blocking FACS on 293F-CD47 cells, blocked ligand biotin-labeled human CD172a-Fc, MFI
[3] = target: full length human CD47 (NCBI #NP_942088.1) on 293F-CD47 cells (human) (UniProt Q08722); experiment: as above; remark: listed apart in the source

EC50 [1]: 1.72 nM | IC50 [2]: 1.9 nM | IC50 [3]: 3.25 nM
Substance: SIRPα-isoform2-Fc (Fc fusion)
